Source: US20190185898A1

Target: core-fucosylated RNase B (21) (bovine) (UniProt P61823)
Experiment: ELISA, glycoprotein coated, AAL-biotin in serial dilution

Chain of core-fucosylated RNase B (21) (bovine) (P61823 27-150): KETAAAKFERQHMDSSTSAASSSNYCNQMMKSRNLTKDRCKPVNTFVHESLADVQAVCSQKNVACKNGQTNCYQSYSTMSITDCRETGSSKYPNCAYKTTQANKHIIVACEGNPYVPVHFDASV

EC50: 275 µM
B1: Aleuria aurantia lectin (AAL) (protein, UniProt P18891 2-313, looked up)
chain: PTEFLYTSKIAAISWAATGGRQQRVYFQDLNGKIREAQRGGDNPWTGGSSQNVIGEAKLFSPLAAVTWKSAQGIQIRVYCVNKDNILSEFVYDGSKWITGQLGSVGVKVGSNSKLAALQWGGSESAPPNIRVYYQKSNGSGSSIHEYVWSGKWTAGASFGSTVPGTGIGATAIGPGRLRIYYQATDNKIREHCWDSNSWYVGGFSASASAGVSIAAISWGSTPNIRVYWQKGREELYEAAYGGSWNTPGQIKDASRPTPSLPDTFIAANSSGNIDISVFFQASGVSLQQWQWISGKGWSIGAVVPTGTPAGW
modifications: biotin label (AAL-biotin), site not stated
